The results in this text go back to patent US20210324011A1 (University of Washington, published 2021).

Sequences and labels used below:
T1: DHF119_C6_anchor
T1 construct: hexamer: avi-tag, monomer of designed hexamer 3H22, (GGS)5 linker, C cap of DHF119; also called anchor DHF119_C6
T1 chain: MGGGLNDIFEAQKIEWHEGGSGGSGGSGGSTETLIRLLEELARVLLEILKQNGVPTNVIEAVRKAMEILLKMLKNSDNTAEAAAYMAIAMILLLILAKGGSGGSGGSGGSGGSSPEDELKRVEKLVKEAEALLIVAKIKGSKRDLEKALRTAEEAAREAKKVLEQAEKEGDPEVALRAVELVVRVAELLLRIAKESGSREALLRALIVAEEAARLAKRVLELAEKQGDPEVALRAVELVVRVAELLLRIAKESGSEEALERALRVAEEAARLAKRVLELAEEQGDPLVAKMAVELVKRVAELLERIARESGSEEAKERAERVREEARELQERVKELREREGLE

B1: DHF58-GFP (designed binder)
chain: MELLRVVMLVKEAEELLTLAVIKGSEDDLQKALRTAVEAAREAVKVLLQAVKRGDPEVALRAVELVVRVAELLLRIAKESGSELALKMALLVAEEAARLAKIVLELAEKQGDPEVALRAVELVVRVAELLLRIAKESGSEEALERALRVAEEAARLAKRVLELAEKQGDPEVARRAVELVKRVAELLERIARESGSEEAKERAERVREEARELQERVKELREREGLE
notes: expressed in E. coli; not shown: green fluorescent protein
B2: DHF20 (designed binder)
chain: MDEMKARLLIERAKEAAERAQEAAERTGDPLVRLLAEMLKRLAQEAAEEVKRDPSSSDVNEALKLIVEAIEAAVRALEAAERTGDPEVRELASELVRLAVEAAEEVQRNPSSSDVNEALKLIVEAIEAAVRALEAAERTGDPRVRELARELVRLAVEAAEEVQRNPSSVEVALALLKIVKAIEEAVESLREAEESGDPMKRLEAALRVREAVERAEEVQRN
notes: vector pCDB24 (SUMO fusion); forms a homo-polymer
B3: DHF107 (designed binder)
chain: MGPEEILERAKESLERAREASERGDEMEFRIAAQKALELARQLVLQALAEGDPELVLEAAKVALRVAELAAKNGDKEVFKKAAESALEVAKVLVLVASKEGKPELVLEAAKVALRVAVLAAMNGDKEVFKKAAESALEVAKRLVEVASKEGDPELVLEAAKVAEKVRVLAAVQGDEEVYEKARETAREVKEELKRVMEEKGLE
notes: vector pET28b; forms a homo-polymer
B4: DHF8 (designed binder)
chain: MGLELSLVINLVLLANLLHLQAMMKGSSEDLEKALRTAEEAAREAKKVLEQAEKNGDPEVALRAVELVVIVAITLLLIAISSGSEEALERALRVAEEAARLAKRVLELAEKAGDPEVALRAVELVVRVAELLLRIAKESGSEEALERALRVAEEAARLAKRVLELAEKQGDPEVARRAVELVKRVAELLERIARESGSEEAKERAERVREEARELQERVKELREREGLE
notes: as for B3
B5: DHF82 (designed binder)
chain: MGPEEILESAKESLERAREASEAGLELVFRLAAEVALELAKRLVEQAKKEGDPELVLEAAKVALRVAELAAKNGDKEVFKKAAESALEVAKRLVEVASKEGDPELVLEAAKVALRVAELAAKNGDKEVFKKAAESALEVAKRLVEVASKEGDPTLVIMALIVAEEVIKLASKQGDELVMLKAVETAKEVKEEAMRVMLEKGLE
notes: as for B3
B6: DHF25 (designed binder)
chain: ARVVLKRVEKLVKEAETLLLVAIMKGSEEDLEKALRTAEEAAREAKKVLVLAVVVGDPEVALRAVELVVRVAELLLLIAIISGSEEALERALRVAEEAARLAKRVLELAENQGDPEVALRAVELVVRVAELLLMIAKVSGSEEALERALRVAEEAARLAKRVLELAEKQGDPEVARRAVELVKRVAELLERIARESGSEEAKERAERVREEALQLQARVMNLREREG
notes: as for B2
B7: DHF16 (designed binder)
chain: MGQILMKAKLSLVKAAEASLSGDELEFRIAAETALVLAKLLVLQAKKKGDPELVLEAAKVALRVAELAAKNGDKEVFKKAAESALEVAKRLVEVASKEGDPELVLEAAKVALRVAELAAKNGDKEVFKKAAESALEVAKRLVEVASKEGDPELVEEAAKVAEEVRKLAKKQGDEEVYEKARETAREVKEELKRVREEKGLE
notes: as for B3
B8: DHF9 (designed binder)
chain: MGLILELAKLSLERARLASEAGDRVEFKIAAEKALLLAKVLVLQAKKEGDPELVLEAAKVALRVAELAAKNGDKEVFKKAAESALEVAKRLVEVASKEGDPELVLEAAKVALRVAELAAKNGDKEVFKKAAESALEVAKRLVEVASKEGDPELVEEAAKVAEEVRKLAKKQGDEEVYEKARETAREVKEELKRVREEKGDLE
notes: as for B3
B9: DHF17 (designed binder)
chain: MGHHHHHHSSGSSEKEELRERLVEIVVALAKAKGDDTELAREAAREAFELVREAAERAGIDSSMVLILAIQLILEVVANAAKEGYDISLAALAAAEAFKRVAEAAKRAGITSSMVLILAIRLIKEVVENAQREGYDISLAALAAAEAFKRVAEAAKRAGITSSMTLMRAIEEIRKRVEEAQREGNDISEAARQAAEEFIIKAVVLKARGDV
notes: as for B3
B10: DHF91 (designed binder)
chain: MGDERRELEKVAVKAIMAAMLGNTDEVREQLQRALEIARESGTLLAVVLALEVVARVAIEAARKGNTDAVREALEVALEIARESGTKVAVVLALEVVARVAIEAARRGNVLAVILALEVALEIARESGTEEAALLAVEVVVRVSDEAKKQGNAVAVAVAEQVAKKILE
notes: vector pET28b; forms a homo-polymer; cryoEM PDB 6E9X
B11: DHF119 (designed binder)
chain: MGPEDELKRVEKLVKEAEALLIVAKIKGSKRDLEKALRTAEEAAREAVKVLVQALLEGDPEVALRAVELVVRVAELLLRIAKESGSREALLRALIVAEEAAKLAKMVLELAEKQGDPEVALRAVELVVRVAELLLRIAKESGSEEALERALRVAEEAARLAKRVLELAEEQGDPLVAKMAVELVKRVAELLERIARESGSEEAKERAERVREEARELQERVKELREREGLE
notes: vector pET28b; forms a homo-polymer; cryoEM PDB 6E9Z
B12: DHF119-GFP (designed binder)
chain: B11 chain
notes: not shown: green fluorescent protein

The first data set deals with the molecule itself. The experiment in a line: fluorescence microscopy in living E. coli (self-assembly).
Turning to B1, the binding result was “binds”.

A further data set concerns the molecule itself. The experiment in a line: negative stain EM; 1 = filaments observed (self-assembly). An excerpt: The designs were expressed in Escherichia coli under the control of a T7 promoter and purified using immobilized metal affinity chromatography (IMAC). […] IMAC eluates were concentrated, and filament formation was monitored by negative stain electron microscopy (EM); insoluble designs were characterized by EM either directly in the initial insoluble fraction, or after solubilization in guanidine hydrochloride, IMAC, and subsequent removal of denaturant.
Negative Stain Electron Microscopy. Soluble fractions were concentrated and insoluble fractions were resuspended in buffer (25 mM Tris, 75 mM NaCl, pH 8) for EM screening. A drop of 6 μL (1 μl sample instantly diluted with 5 μl of buffer) was applied on negatively glow discharged, carbon-coated 200-mesh copper grids (Ted Pella, Inc.), washed with Milli-Q™ Water and stained using 0.75% uranyl formate as described previously (28). The screening was performed on either a 120 kV Tecnai Spirit™ T12 transmission electron microscope (FEI, Hillsboro, Oreg.) or a 100 kV Morgagni M268 transmission electron microscope (FEI, Hillsboro, Oreg.). Images were recorded on a bottom mount Teitz CMOS™ 4 k camera system. The contrast of the images was enhanced in the Fiji software (29) for clarity.
For the molecule B2, the binding result is listed as “binds”.
Same read-out and setting: for B3 the value was “binds”.
As for B4, the binding result is given as “binds”.
Still for that read-out and setting: for B5 the value was “binds”; for B6, “binds”.
Still for that read-out and setting: in the case of B7 it was “binds”; in that of B8, “binds”.
Turning to B9, the binding result was “binds”.
With B10, the binding result is on record as “binds”.

In a further data set the target is T1, DHF119_C6_anchor. Description: anchor on streptavidin-coated magnetic beads, microscopy.
From the text: We sought to replicate this mechanism of control by designing multimeric anchor constructs, with multiple monomeric subunits held close to the relative orientations in the corresponding filaments by a fusion to designed homo-oligomers with the appropriate geometry (FIG. 14; one of the interaction interfaces is eliminated to restrict fiber growth in one direction). […] To study the kinetics of filament formation in vitro in more detail, we attached the anchors to glass slides, added monomers fused to yellow fluorescent protein (YFP) and monitored fiber formation by total internal reflection (TIRF) microscopy. The anchors seeded the rapid growth of multiple micron length fibers over 30 minutes (FIG. 4C; for analysis of growth kinetics of a second fiber see FIG. 15).
In the case of B11, the binding result is on record as “binds”.

For a further data set, the target named is T1, DHF119_C6_anchor. The experiment in a line: TIRF microscopy over 30 minutes.
Method: Filament Growth In Vitro. PEG-silane coated glass coverslips were attached to similarly-coated slides with strips of double-stick tape to make flow chambers. All incubations were at 25° C.
The background of the tif movies was subtracted using the software Fiji (29) with a ball radius of 5.0. The contrast was modified to reduce background noise to facilitate fiber identification. CellProfiler™ software (37) was used to identify and track fiber through the different time frames. The output files from CellProfiler™ provided the Major axis length for every fiber through all the movie.
Turning to B12, the binding result is “binds”.
